Values quoted from earlier work as cited in US8747397B2, “Cryotreatment pellet” (CPSI Holdings LLC, priority 2009, dated 2014).

Test system: prostate cancer cell

B1: TNF-Related Apoptosis-Inducing Ligand (protein, UniProt P50591 1-281, looked up)
Tumor necrosis factor ligand …: MAMMEVQGGPSLGQTCVLIVIFTVLLQSLCVAVTYVYFTNELKQMQDKYSKSGIACFLKEDDSYWDPNDEESMNSPCWQVKWQLRQLVRKMILRTSEETISTVQEKQQNISPLVRERGPQRVAAHITGTRGRSNTLSSPNSKNEKALGRKINSWESSRSGHSFLSNLHLRNGELVIHEKGFYYIYSQTYFRFQEEIKENTKNDKQMVQYIYKYTSYPDPILLMKSARNSCWSKDAEYGLYSIYQGGIFELKENDRIFVSVTNEHLIDMDHEASFFGAFLVG
notes: cytotoxic agent, apoptosis-inducing ligand applied in combination with freezing
Question: Which results are given for B1?
Answer: cell death (sub-lethal dose applied in vitro in combination with freezing): complete prostate cancer cell death occurs; critical death temperature (sub-lethal dose in combination with freezing, reduced from −40° C. (freezing alone)): −10 °C
